This is an account of results in publication PMC9853177 (2023).

As a reminder, the Kd is the constant that tells how readily two partners part at equilibrium. The low end stands for tighter binding, the high end for weaker binding.

The test addresses linear tetra-ubiquitin (M1-linked Ub4) (Homo sapiens, UniProt P0CG47). Nature of the test: ITC.

B1: HOIL-1 (protein)
chain: MDEKTKKAEEMALSLTRAVAGGDEQVAMKCAIWLAEQRVPLSVQLKPEVSPTQDIRLWVSVEDAQMHTVTIWLTVRPDMTVASLKDMVFLDYGFPPVLQQWVIGQRLARDQETLHSHGVRQNGDSAYLYLLSARNTSLNPQELQRERQLRMLEDLGFKDLTLQPRGPLEPGPPKPGVPQEPGRGQPDAVPEPPPVGWQCPGCTFINKPTRPGCEMCCRARPEAYQVPASYQPDEEERARLAGEEEALRQYQQRKQQQQEGNYLQHVQLDQRSLVLNTEPAECPVCYSVLAPGEAVVLRECLHTFCRECLQGTIRNSQEAEVSCPFIDNTYSCSGKLLEREIKALLTPEDYQRFLDLGISIAENRSAFSYHCKTPDCKGWCFFEDDVNEFTCPVCFHVNCLLCKAIHEQMNCKEYQEDLALRAQNDVAARQTTEMLKVMLQQGEAMRCPQCQIVVQKKDGCDWIRCTVCHTEICWVTKGPRWGPGGPGDTSGGCRCRVNGIPCHPSCQNCH
B1 displayed a Kd of 90 nM. In other words, the double-digit nanomolar range.
